According to PMC5010584, “Comparison of Ga-68-Labeled Fusarinine C-Based Multivalent RGD Conjugates and [^68Ga]NODAGA-RGD—In Vivo Imaging Studies in Human Xenograft Tumors” (Molecular Imaging and Biology, 2016):
Read-outs that look alike come from different tables or passages of the source.

How the values were obtained:
[1] = tested on: M21 cells (integrin αvβ3 positive); assay: Internalization assay in M21 cells; type: cell-based, human; details: 90-min incubation, 37 °C
Method: One-milliliter aliquots in Eppendorf tubes were incubated at 37 °C for 1 h in triplicates, and [^68Ga]FSC(succ-RGD)3, [^68Ga]FSC(RGDfE)3, or [^68Ga]FSC(Mal-RGD)3 (approximately 1.5 × 10^6 cpm, 1.2 μg peptides) in PBS with 0.5 % BSA (150 μl, total series) or with 10 μM c(RGDyV) in PBS/0.5 % BSA (150 μl, nonspecific series) at 37 °C was added. After 90-min incubation was stopped by centrifugation, the medium was removed followed by washing (twice) with ice-cold Tris-buffered saline. After incubation in acid wash buffer (20 mM acetate buffer, pH 4.5) at 37 °C for 5 min (two times) and centrifugation, membrane bound activity was collected in plastic vials. Internalized radioligand fraction was collected after lysing cells by addition of 2 M NaOH. The internalized activity was expressed as percentage of total activity per milligram protein after spectrophotometric determination of protein (Bradford assay) in the NaOH fraction.

[2] = Distribution coefficient (logD), octanol/PBS; type: physicochemical
Method: A volume of 500 μl PBS including 0.5 MBq radioligand (approximately 0.5 μg peptide) was combined with 500 μl octanol; the mixture was vortexed for 15 min and centrifuged for 2 min at 2000 rcf. From each phase, an aliquot (50 μl) was pipetted out and measured in a 2480 Wizard2 Automatic Gamma Counter (PerkinElmer, Vienna, Austria). Each measurement was repeated five times. LogD value was calculated as the average log ratio of the radioactivity in the organic fraction and the PBS fraction.

[3] = tested on: integrin αvβ3-positive (M21) and integrin αvβ3-negative (M21-L) human melanoma tumors; assay: Ex vivo biodistribution in mice bearing M21/M21-L xenografts
Method: (§1) For the induction of tumor xenografts, female, athymic BALB/c nude mice (Charles River Laboratories) were injected subcutaneously with either 5 × 10^6 integrin αvβ3-positive M21 cells into the right hind limb and with 5 × 10^6 integrin αvβ3-negative M21-L cells (negative control) into the left hind limb of the same mouse. […] On the day of the experiment, [^68Ga]FSC(succ-RGD)3, [^68Ga]FSC(RGDfE)3, or [^68Ga]FSC(Mal-RGD)3 (∼0.5 MBq/mouse, ∼0.5 μg peptide, respectively) was intravenously injected in the lateral tail vein. Mice were euthanized by cervical dislocation at 1 and 2 h (only for [^68Ga]FSC(succ-RGD)3) after injection. Organs (spleen, pancreas, stomach, intestine, kidney, liver, heart, and lung), blood, muscle tissue, and tumors were dissected and weighed. Activity of the different samples was measured in the gamma counter. Results were expressed as percentage of injected dose per gram tissue (% ID/g).

[4] = as above; details: mouse, in vivo, iv
Method: as §1

[5] = MicroPET/CT imaging in U87MG tumor-bearing mice; details: mouse, uptake value in tumor (ROI analysis), U87MG xenograft, PET, 90 min p.i., retro-orbital
Method: To investigate the capabilities of binding to the integrin αvβ3 receptors in the different tumor xenograft models and, at the same time, compare the imaging properties of [^68Ga]FSC(succ-RGD)3 and [^68Ga]NODAGA-RGD, two U87MG tumor-bearing mice were administered retro-orbitally (r.o.) under general anesthesia with [^68Ga]FSC(succ-RGD)3 and [^68Ga]NODAGA-RGD each other (∼6 MBq/mouse, ∼5 μg peptide) at continued days. For the induction of tumor xenografts, female, athymic BALB/c nude mice (AnLab, Prague, Czech Republic) were injected subcutaneously with 5 × 10^6 U87MG cells into the right flank. The tumors were allowed to grow until they had reached a volume of 0.5 to 0.8 cm^3. Imaging experiments were conducted on an Albira microPET/SPECT/CT imaging system (Bruker Biospin Corporation, Woodbridge, CT, USA). MicroPET/CT images were acquired under general anesthesia (isoflurane/O2) and heating at 37 °C. PET data for each mouse was recorded via either dynamic imaging for 90 min (5-min PET scan per frame) or static scans (a 5-min PET scan (axial FOV 148 mm) was performed, followed by a 25-min CT scan (axial FOV 65 mm, 45 kVp, 400 μA, at 600 projections)) at 90 min p.i. […] The uptake values (%ID/g) in kidneys, heart, and tumor were analyzed by drawing standardized volumes of interest.

[6] = tested on: integrin αvβ3-positive M21 tumor; details: mouse, in vivo, iv
Method: To compare the imaging properties of [^68Ga]FSC(succ-RGD)3, [^68Ga]FSC(RGDfE)3, and [^68Ga]FSC(Mal-RGD)3, microPET/CT imaging experiments were conducted on an Inveon microPET/CT scanner (Siemens Preclinical Solutions, Knoxville, USA). BALB/c nude mice bearing M21-positive tumor xenografts were administered with [^68Ga]FSC(succ-RGD)3 (or [^68Ga]FSC(RGDfE)3, [^68Ga]FSC(Mal-RGD)3, ∼5 MBq/mouse, ∼5 μg peptide) via intravenous (i.v.) injection. The body temperature of mice was maintained at 37 °C on the scanner bed and in the incubation chambers using heating pads. Dynamic 10-min duration PET scans were performed for 50 min while static PET scans (10 min) were performed at 1-h post-injection (p.i.), followed by a 25-min CT scan (spatial resolution, 113 μm; 80 kV, 500 mA). The mice remained under general anesthesia (isoflurane/O2) during the time between injection and imaging. […] Spherical isocontours were set at 50 % of the maximal pixel value to measure uptake values (Bq/ml) in kidneys, heart, and tumor.

[7] = tested on: integrin αvβ3-positive (M21) and integrin αvβ3-negative (M21-L) human melanoma tumors; details: 1 h, cited from earlier work
integrin αvβ3 = molecular target: T1, integrin αvβ3 (Homo sapiens, UniProt P05106+P06756); assay: Binding affinity for immobilized integrin αvβ3, displacement of [^125I]c(RGDyV); details: isolated integrin αvβ3, radioligand [^125I]c(RGDyV), three independent measurements
T1 construct: purchased Millipore-Chemicon, Temecula, CA, USA
T1 sequence (P06756 31-889 limits assumed): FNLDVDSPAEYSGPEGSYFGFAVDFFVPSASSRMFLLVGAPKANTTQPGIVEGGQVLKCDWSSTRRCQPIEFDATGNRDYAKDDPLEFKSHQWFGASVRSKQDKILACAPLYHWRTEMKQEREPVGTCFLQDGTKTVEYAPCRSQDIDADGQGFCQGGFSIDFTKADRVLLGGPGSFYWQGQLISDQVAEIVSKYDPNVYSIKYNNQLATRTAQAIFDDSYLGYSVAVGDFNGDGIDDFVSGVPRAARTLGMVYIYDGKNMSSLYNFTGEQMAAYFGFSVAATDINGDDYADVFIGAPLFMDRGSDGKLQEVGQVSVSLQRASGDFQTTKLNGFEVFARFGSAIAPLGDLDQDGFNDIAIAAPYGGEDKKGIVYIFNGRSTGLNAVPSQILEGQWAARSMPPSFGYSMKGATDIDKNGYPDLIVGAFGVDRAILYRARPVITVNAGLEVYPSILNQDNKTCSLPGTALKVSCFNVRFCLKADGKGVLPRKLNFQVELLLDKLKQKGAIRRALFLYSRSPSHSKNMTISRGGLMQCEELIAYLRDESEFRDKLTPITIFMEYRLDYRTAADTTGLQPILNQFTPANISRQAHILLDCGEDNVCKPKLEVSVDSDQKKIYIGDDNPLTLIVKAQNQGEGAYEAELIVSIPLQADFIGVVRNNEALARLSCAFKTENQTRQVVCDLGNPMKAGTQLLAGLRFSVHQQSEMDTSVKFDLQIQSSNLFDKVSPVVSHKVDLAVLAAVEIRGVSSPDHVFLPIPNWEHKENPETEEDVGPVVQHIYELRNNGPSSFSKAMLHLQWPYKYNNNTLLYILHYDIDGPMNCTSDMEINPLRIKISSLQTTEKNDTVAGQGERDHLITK
T1 sequence (P06756 891-1048 limits assumed): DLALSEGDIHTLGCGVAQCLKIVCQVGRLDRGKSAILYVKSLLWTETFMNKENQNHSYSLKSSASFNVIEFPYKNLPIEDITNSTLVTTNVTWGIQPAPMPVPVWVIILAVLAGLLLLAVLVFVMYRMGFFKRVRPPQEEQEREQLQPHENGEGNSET
T1 sequence (P05106 27-788): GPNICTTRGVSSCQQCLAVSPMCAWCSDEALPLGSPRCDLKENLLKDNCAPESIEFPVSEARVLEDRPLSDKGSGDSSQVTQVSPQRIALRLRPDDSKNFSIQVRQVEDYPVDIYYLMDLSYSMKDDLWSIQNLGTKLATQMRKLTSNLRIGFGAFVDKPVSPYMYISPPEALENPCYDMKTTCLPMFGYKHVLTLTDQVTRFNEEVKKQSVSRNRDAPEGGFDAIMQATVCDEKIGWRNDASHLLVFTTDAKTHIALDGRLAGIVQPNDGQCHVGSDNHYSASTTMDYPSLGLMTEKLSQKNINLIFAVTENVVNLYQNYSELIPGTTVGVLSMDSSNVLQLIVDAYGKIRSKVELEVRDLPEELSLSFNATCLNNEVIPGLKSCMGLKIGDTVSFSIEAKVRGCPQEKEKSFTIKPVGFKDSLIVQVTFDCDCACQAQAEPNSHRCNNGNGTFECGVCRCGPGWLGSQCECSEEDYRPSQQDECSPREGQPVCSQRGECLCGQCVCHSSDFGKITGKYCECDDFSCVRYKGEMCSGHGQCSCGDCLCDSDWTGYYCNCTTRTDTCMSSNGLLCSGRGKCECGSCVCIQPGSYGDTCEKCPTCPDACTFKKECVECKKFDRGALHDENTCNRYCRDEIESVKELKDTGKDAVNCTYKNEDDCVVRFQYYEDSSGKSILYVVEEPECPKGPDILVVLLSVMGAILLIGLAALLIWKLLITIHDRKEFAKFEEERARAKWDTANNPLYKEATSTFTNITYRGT
Method: In vitro binding affinities of cyclo(-Arg-Gly-Asp-DTyr-Val-) (c(RGDyV)) and the three FSC-RGD conjugates were determined by using isolated integrin αvβ3 (Millipore-Chemicon, Temecula, CA, USA) and I-125-labeled c(RGDyV) as radioligand. ([^125I]c(RGDyV) was produced as described in [18]). To integrin αvβ3, coated overnight at 4 °C onto 96-well plates (Nunc, Thermo Fisher Scientific, Vienna, Austria), [^125I]c(RGDyV) and the corresponding peptides in increasing concentrations from 0.001 to 100 nM were added. Plates were washed, and integrin bound activity was recovered with 2-M NaOH solution and counted in a gamma counter. OriginPro 8.5 software (Northampton, MA, USA) was used to calculate half maximal inhibitory concentration (IC50) values in three independent measurements.

[8] = M21 model, 1 h p.i., not statistically significant

| Compound | internalized activity, % of total activity per milligram protein [1] [% cpm/mg] | logD [2] | M21-L tumor uptake ([3]; mouse, in vivo, iv, 1 h) [% ID/g] | tissue uptake at 1 h ([4]; Heart uptake) [%ID/g] | tissue uptake at 1 h ([4]; Intestine uptake) [%ID/g] | tissue uptake at 1 h ([4]; Kidneys uptake) [%ID/g] | tissue uptake at 1 h ([4]; Liver uptake) [%ID/g] | tissue uptake at 1 h ([4]; Lung uptake) [%ID/g] | tissue uptake at 1 h ([4]; M21-L tumor uptake) [%ID/g] | tissue uptake at 1 h ([4]; M21 tumor uptake) [%ID/g] | tissue uptake at 1 h ([4]; Muscle uptake) [%ID/g] | tissue uptake at 1 h ([4]; Pancreas uptake) [%ID/g] | tissue uptake at 1 h ([4]; Stomach uptake) [%ID/g] | further results |
| --- | --- | --- | --- | --- | --- | --- | --- | --- | --- | --- | --- | --- | --- | --- |
| C/C1=C/C(=O)N(O)CCC[C@H](NC(=O)CC[C@@H]2NC(=O)[C@@H](Cc3ccccc3)NC(=O)[C@H](CC(=O)O)NC(=O)CNC(=O)[C@H](CCCNC(=N)N)NC2=O)C(=O)OCC/C(C)=C\C(=O)N(O)CCC[C@H](NC(=O)CC[C@@H]2NC(=O)[C@@H](Cc3ccccc3)NC(=O)[C@H](CC(=O)O)NC(=O)CNC(=O)[C@H](CCCNC(=N)N)NC2=O)C(=O)OCC/C(C)=C\C(=O)N(O)CCC[C@H](NC(=O)CC[C@@H]2NC(=O)[C@@H](Cc3ccccc3)NC(=O)[C@H](CC(=O)O)NC(=O)CNC(=O)[C@H](CCCNC(=N)N)NC2=O)C(=O)OCC1 [[^68Ga]FSC(RGDfE)3, metal not drawn] | 5.3 ± 0.7 | -3.8 ± 0.2 | 1.25 ± 0.06 | 1.52 ± 0.13 | 3.21 ± 0.48 | 11.5 ± 1.87 | 12.1 ± 1.34 | 2.48 ± 1.07 | 1.1 ± 0.3 | 5.49 ± 0.94 | 0.94 ± 0.09 | 1.04 ± 0.12 | 4.76 ± 0.25 | tissue uptake at 1 h ([4]; Blood uptake): 0.4 ± 0.08 %ID/g; tissue uptake at 1 h ([4]; Spleen uptake): 9.13 ± 0.27 %ID/g |
| C/C1=C/C(=O)N(O)CCC[C@H](NC(=O)CCC(=O)NCCCC[C@@H]2NC(=O)[C@@H](Cc3ccccc3)NC(=O)[C@H](CC(=O)O)NC(=O)CNC(=O)[C@H](CCCNC(=N)N)NC2=O)C(=O)OCC/C(C)=C\C(=O)N(O)CCC[C@H](NC(=O)CCC(=O)NCCCC[C@@H]2NC(=O)[C@@H](Cc3ccccc3)NC(=O)[C@H](CC(=O)O)NC(=O)CNC(=O)[C@H](CCCNC(=N)N)NC2=O)C(=O)OCC/C(C)=C\C(=O)N(O)CCC[C@H](NC(=O)CCC(=O)NCCCC[C@@H]2NC(=O)[C@@H](Cc3ccccc3)NC(=O)[C@H](CC(=O)O)NC(=O)CNC(=O)[C@H](CCCNC(=N)N)NC2=O)C(=O)OCC1 [[^68Ga]FSC(succ-RGD)3, metal not drawn] | 5.7 ± 0.6 | -3.6 ± 0.1 | 1.10 ± 0.30 | 1.21 ± 0.28 | 2.41 ± 0.8 | 8.12 ± 1.09 | 3.54 ± 0.63 | 2.42 ± 0.22 | 1.25 ± 0.06 | 3.69 ± 0.94 | 0.52 ± 0.19 | 0.61 ± 0.13 | 2.02 ± 1.35 | tissue uptake at […] [5]: 3.8 %ID/g; earliest visualization of the receptor-positive tumor in dynamic PET [6]: 10 min p.i.; M21/kidneys ratio ([3]; 1 h p.i.): 0.5 ± 0.1; M21/kidneys ratio ([3]; 2 h p.i.): 0.6 ± 0.1; Blood uptake ([3]; mouse, in vivo, iv, 1 h): 0.63 ± 0.26 % ID/g; Spleen uptake ([3]; mouse, in vivo, iv, 1 h): 3.27 ± 0.64 % ID/g |
| N=C(N)NCCC[C@@H]1NC(=O)[C@H](CCCCNC(=O)CCC(C(=O)O)N2CCN(CC(=O)O)CCN(CC(=O)O)CC2)NC(=O)[C@@H](Cc2ccccc2)NC(=O)[C@H](CC(=O)O)NC(=O)CNC1=O (stereo partly drawn) [[^68Ga]NODAGA-RGD, metal not drawn] |  |  |  |  |  |  |  |  |  |  |  |  |  | M21/kidneys ratio ([7]; same murine model, calculated based on the literature data ref 14): 1.0 ± 0.4; M21 tumor uptake ([7]; mouse, in vivo): 1.3 %ID/g; higher tumor to blood ratio versus [^68Ga]FSC(succ-RGD)3 [3, 8]: 1.8 fold; higher tumor to kidney ratio versus [^68Ga]FSC(succ-RGD)3 [3, 8]: 2 fold |
| CC(C)[C@@H]1NC(=O)[C@@H](Cc2ccc(O)cc2)NC(=O)[C@H](CC(=O)O)NC(=O)CNC(=O)[C@H](CCCNC(=N)N)NC1=O [c(RGDyV), cyclo(-Arg-Gly-Asp-DTyr-Val-)] |  |  |  |  |  |  |  |  |  |  |  |  |  | IC50 (integrin αvβ3): 6.2 ± 1.6 nM |
